System: Escherichia coli TOP10
Assay: shrunken log2 fold change of peptide-encoding DNA abundance (4.5 h post-induction vs induction); higher = less antimicrobial activity (less host growth inhibition)
Conditions: time post-induction: 4.5 h; library: site-saturation at positions 5, 18, 19, 20
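Also: peptides expressed intracellularly from a pBAD plasmid library in pooled LB shake-flask culture, induced with 0.3% L-arabinose, DNA abundance read by NGS, three biological replicates, DESeq2 with apeglm shrinkage.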

Row | Sequence | shrunken log2 fold change
1 | RRIRWRPPRLPRPRPRPDICPRP | -0.0379
2 | RRIRSRPPRLPRPRPRPKYSPRP | -0.253
3 | RRIRLRPPRLPRPRPRPERGPRP | 0.538
4 | RRIRRRPPRLPRPRPRPLLNPRP | -0.00444
5 | RRIRHRPPRLPRPRPRPYSSPRP | -0.0579
6 | RRIRCRPPRLPRPRPRPEVLPRP | 0.149
7 | RRIRKRPPRLPRPRPRPAVEPRP | 0.019
8 | RRIRQRPPRLPRPRPRPFWWPRP | 0.0308
9 | RRIRIRPPRLPRPRPRPEAHPRP | 0.0771
10 | RRIRHRPPRLPRPRPRPNCLPRP | -0.0125
11 | RRIRGRPPRLPRPRPRPDGDPRP | 0.265
12 | RRIRRRPPRLPRPRPRPWNGPRP | -0.346
13 | RRIRWRPPRLPRPRPRPMLDPRP | 0.426
14 | RRIRARPPRLPRPRPRPGFSPRP | 0.329
15 | RRIRYRPPRLPRPRPRPEKKPRP | -0.0472
16 | RRIRFRPPRLPRPRPRPKVHPRP | 0.146
17 | RRIRKRPPRLPRPRPRPCIIPRP | -0.108
18 | RRIRPRPPRLPRPRPRPSWYPRP | -0.698
19 | RRIRCRPPRLPRPRPRPESKPRP | 0.198
20 | RRIRTRPPRLPRPRPRPTIPPRP | -0.198
21 | RRIRDRPPRLPRPRPRPCYNPRP | -0.271
22 | RRIRPRPPRLPRPRPRPNCQPRP | 0.419
23 | RRIRTRPPRLPRPRPRPFNKPRP | 0.0555
24 | RRIRPRPPRLPRPRPRPVQPPRP | 0.000272
25 | RRIRYRPPRLPRPRPRPIVFPRP | -0.58

Row | Sequence | shrunken log2 fold change
26 | RRIRDRPPRLPRPRPRPEKWPRP | -0.00325
27 | RRIRRRPPRLPRPRPRPHAFPRP | -0.103
28 | RRIRHRPPRLPRPRPRPEQIPRP | 0.0219
29 | RRIRQRPPRLPRPRPRPHDIPRP | 0.0769
30 | RRIRYRPPRLPRPRPRPVDYPRP | -0.213
31 | RRIRNRPPRLPRPRPRPRNSPRP | -0.0392
32 | RRIRRRPPRLPRPRPRPQREPRP | 0.153
33 | RRIRHRPPRLPRPRPRPRRGPRP | 0.343
34 | RRIRCRPPRLPRPRPRPFHDPRP | -0.727
35 | RRIRLRPPRLPRPRPRPFNTPRP | 0.724
36 | RRIRHRPPRLPRPRPRPQQIPRP | -0.0193
37 | RRIRMRPPRLPRPRPRPDQKPRP | -0.0396
38 | RRIRWRPPRLPRPRPRPISCPRP | -0.0467
39 | RRIRGRPPRLPRPRPRPQHRPRP | 0.212
40 | RRIRHRPPRLPRPRPRPCMGPRP | -0.194
41 | RRIRFRPPRLPRPRPRPPMLPRP | 0.638
42 | RRIRNRPPRLPRPRPRPEMAPRP | 0.321
43 | RRIRLRPPRLPRPRPRPLWRPRP | 0.785
44 | RRIRTRPPRLPRPRPRPDKLPRP | 0.0136
45 | RRIRWRPPRLPRPRPRPTNRPRP | -0.018
46 | RRIRFRPPRLPRPRPRPVCFPRP | -0.151
47 | RRIRWRPPRLPRPRPRPFIIPRP | -0.617
48 | RRIRHRPPRLPRPRPRPDIDPRP | -0.235
49 | RRIRERPPRLPRPRPRPDEDPRP | -0.209
50 | RRIRARPPRLPRPRPRPMYEPRP | -0.0125

Row | Sequence | shrunken log2 fold change
51 | RRIRWRPPRLPRPRPRPLNRPRP | -0.274
52 | RRIRDRPPRLPRPRPRPSMCPRP | 0.123
53 | RRIRGRPPRLPRPRPRPNIRPRP | -0.135
54 | RRIRSRPPRLPRPRPRPPTNPRP | 0.298
55 | RRIRQRPPRLPRPRPRPCTWPRP | -0.464
56 | RRIRYRPPRLPRPRPRPRPYPRP | -0.259
57 | RRIRRRPPRLPRPRPRPTYWPRP | -0.144
58 | RRIRIRPPRLPRPRPRPDPNPRP | -0.546
59 | RRIRHRPPRLPRPRPRPFWLPRP | 0.137
60 | RRIRFRPPRLPRPRPRPWKRPRP | -0.0222
61 | RRIRARPPRLPRPRPRPYRNPRP | -0.222
62 | RRIRQRPPRLPRPRPRPWSAPRP | -0.277
63 | RRIRHRPPRLPRPRPRPREYPRP | -0.0589
64 | RRIRGRPPRLPRPRPRPQMMPRP | 0.112
65 | RRIRERPPRLPRPRPRPKWAPRP | 0.0574
66 | RRIRTRPPRLPRPRPRPAMKPRP | -0.125
67 | RRIRFRPPRLPRPRPRPQTHPRP | -0.151
68 | RRIRTRPPRLPRPRPRPCHCPRP | -1.43
69 | RRIRKRPPRLPRPRPRPATEPRP | 0.486
70 | RRIRSRPPRLPRPRPRPPFPPRP | 0.256
71 | RRIRHRPPRLPRPRPRPHWHPRP | -0.25
72 | RRIRVRPPRLPRPRPRPSPNPRP | -0.271
73 | RRIRKRPPRLPRPRPRPNFMPRP | -0.117
74 | RRIRARPPRLPRPRPRPDPIPRP | -0.521
75 | RRIRDRPPRLPRPRPRPKDEPRP | 0.0229

Row | Sequence | shrunken log2 fold change
76 | RRIRVRPPRLPRPRPRPEDTPRP | 0.106
77 | RRIRQRPPRLPRPRPRPRPGPRP | 0.286
78 | RRIRERPPRLPRPRPRPSDYPRP | -0.627
79 | RRIRSRPPRLPRPRPRPEYCPRP | 0.184
80 | RRIRNRPPRLPRPRPRPITLPRP | -0.229
81 | RRIRPRPPRLPRPRPRPRPDPRP | 0.45
82 | RRIRMRPPRLPRPRPRPDVCPRP | 0.0762
83 | RRIRCRPPRLPRPRPRPKNQPRP | -0.112
84 | RRIRERPPRLPRPRPRPEQIPRP | -0.207
85 | RRIRFRPPRLPRPRPRPDIKPRP | -0.602
86 | RRIRTRPPRLPRPRPRPIVRPRP | -0.00141
87 | RRIRVRPPRLPRPRPRPWWGPRP | 0.0115
88 | RRIRNRPPRLPRPRPRPEVMPRP | 0.0307
89 | RRIRVRPPRLPRPRPRPSYTPRP | -0.27
90 | RRIRRRPPRLPRPRPRPANLPRP | 0.0328
91 | RRIRWRPPRLPRPRPRPYLAPRP | -0.211
92 | RRIRIRPPRLPRPRPRPSTYPRP | -1.63
93 | RRIRGRPPRLPRPRPRPMKTPRP | 0.494
94 | RRIRWRPPRLPRPRPRPYTRPRP | -0.774
95 | RRIRNRPPRLPRPRPRPIQWPRP | 0.0441
96 | RRIRWRPPRLPRPRPRPSMSPRP | 0.0258
97 | RRIRFRPPRLPRPRPRPSSVPRP | -0.503
98 | RRIRRRPPRLPRPRPRPYMNPRP | -0.621
99 | RRIRVRPPRLPRPRPRPYRQPRP | -0.479
100 | RRIRDRPPRLPRPRPRPVACPRP | 0.35

Row | Sequence | shrunken log2 fold change
101 | RRIRNRPPRLPRPRPRPYIWPRP | -0.588
102 | RRIRQRPPRLPRPRPRPTTEPRP | 0.26
103 | RRIRRRPPRLPRPRPRPSAFPRP | 1.27
104 | RRIRLRPPRLPRPRPRPNNIPRP | -0.559
105 | RRIRQRPPRLPRPRPRPSYDPRP | -0.251
106 | RRIRKRPPRLPRPRPRPSCWPRP | 0.244
107 | RRIRPRPPRLPRPRPRPTQLPRP | 0.166
108 | RRIRKRPPRLPRPRPRPHSEPRP | -0.0169
109 | RRIRPRPPRLPRPRPRPFGGPRP | 0.0321
110 | RRIRMRPPRLPRPRPRPMCRPRP | 0.0713
111 | RRIRLRPPRLPRPRPRPGPRPRP | 0.693
112 | RRIRLRPPRLPRPRPRPYIYPRP | -1.24
113 | RRIRLRPPRLPRPRPRPDCTPRP | 0.0972
114 | RRIRSRPPRLPRPRPRPPYPPRP | 0.0516
115 | RRIRPRPPRLPRPRPRPGRIPRP | 0.0185
116 | RRIRQRPPRLPRPRPRPAICPRP | -0.0709
117 | RRIRGRPPRLPRPRPRPLSPPRP | 0.435
118 | RRIRHRPPRLPRPRPRPTTCPRP | -0.278
119 | RRIRRRPPRLPRPRPRPTPHPRP | 0.884
120 | RRIRCRPPRLPRPRPRPKGVPRP | 0.595
121 | RRIRFRPPRLPRPRPRPNVEPRP | 0.0199
122 | RRIRERPPRLPRPRPRPQHMPRP | -0.735
123 | RRIRFRPPRLPRPRPRPGSFPRP | -0.0983
124 | RRIRIRPPRLPRPRPRPQIYPRP | -1.08
125 | RRIRMRPPRLPRPRPRPTYNPRP | -0.361

Source: the supplement of paper PMC9112550, “Optimization of the antimicrobial peptide Bac7 by deep mutational scanning” (BMC Biology, 2022)
